This note sets out measurements from the supplement of paper PMC9732359.

This data set is described as follows: protein stability index of a GFP-peptide fusion (yeast GPS) (PSI 1-4); higher = more stable; sorted into four equal gates, so the index is relative within each strain. In short, it runs like this: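 Mid-log yeast cultures in leucine-free medium, carrying a pooled plasmid library, were sorted into four equal gates by their GFP/Cherry fluorescence ratio. Each plasmid expressed Cherry along with GFP fused upstream of a tiled 17-residue yeast protein peptide. Plasmids recovered from each gate were PCR-amplified and Illumina-sequenced, with reads assigned to strains by barcodes. The protein stability index was obtained by summing each gate's read frequency weighted by its gate number.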

± gives the uncertainty stated by the source.

Consider QREDKLKSHYYQTCKNS [SMC2], for which the protein stability index reads like this: (doa10∆) 1.24 ± 0.073; (pdr5∆) 1.25 ± 0.057; (san1∆) 1.63 ± 0.071; (ubr1∆) 1.42 ± 0.054.

As for QREEAKKVVKKAFEERH [RPL27A], the protein stability index runs as follows: (pdr5∆) 3.78 ± 0.2; (san1∆) 2.63 ± 0.29.

In the case of QRETYDSNESDDDVTPS [YLR335W/NUP2], the protein stability index worked out at 1.99 ± 0.1 (doa10∆), 2.43 ± 0.2 (pdr5∆), 2.37 ± 0.15 (san1∆) and 2.65 ± 0.18 (ubr1∆).

As to QRITIPNVCNMKQYRDF [PRP28], the protein stability index runs as follows: (doa10∆) 2.85 ± 0.18; (pdr5∆) 2.55 ± 0.092; (san1∆) 2.07 ± 0.11; (ubr1∆) 2.58 ± 0.11.

Consider QRKTVNSDDILSLHENY [POP1], for which the protein stability index was determined as 2.55 ± 0.053 (doa10∆), 2.65 ± 0.069 (pdr5∆), 2.54 ± 0.068 (san1∆) and 2.92 ± 0.039 (ubr1∆).

Consider QRQKTYVERFETQLKVV [SMC1], for which the protein stability index reads like this: (doa10∆) 1.73 ± 0.065; (pdr5∆) 2.51 ± 0.08; (san1∆) 1.23 ± 0.2; (ubr1∆) 1.24 ± 0.061.

On to QRRCLHCGALNGVVKKA [RPO31], for which the protein stability index reads like this: (doa10∆) 2.35 ± 0.13; (pdr5∆) 2.54 ± 0.13; (san1∆) 2.41 ± 0.12; (ubr1∆) 2.59 ± 0.11.

Take QRRSWRQYVGQLAPSSV [DIS3]: the protein stability index is, setting by setting: (doa10∆) 2.06 ± 0.077; (pdr5∆) 2.45 ± 0.18; (ubr1∆) 2.36 ± 0.078.

Take QRRVLLSAPLSKELRAQ [RPL26A]: the protein stability index runs as follows: (doa10∆) 2.65 ± 0.073; (pdr5∆) 2.43 ± 0.078; (san1∆) 2.62 ± 0.08; (ubr1∆) 2.39 ± 0.063.

Sequence QRSRRKFSERRKALPKE [DSN1] returned a protein stability index (doa10∆) of 3.47 ± 0.22 and a protein stability index (san1∆) of 3.52 ± 0.099.

On to QRTCLMTVTFLILAGQV [YCS4], for which the protein stability index runs as follows: (doa10∆) 1.19 ± 0.052; (pdr5∆) 1.36 ± 0.05; (san1∆) 1.27 ± 0.099; (ubr1∆) 1.43 ± 0.043.

On to QRYQDLSQQQKDAQKKD [YIL149C/MLP2], for which the protein stability index was found to be 3.09 ± 0.08 (doa10∆), 3.08 ± 0.062 (pdr5∆), 2.79 ± 0.071 (san1∆) and 2.94 ± 0.046 (ubr1∆).

Regarding QSFQNPFTASQSNINTN [YIL149C/MLP2], the protein stability index runs as follows: (doa10∆) 2.57 ± 0.067; (pdr5∆) 2.55 ± 0.044; (san1∆) 2.62 ± 0.053; (ubr1∆) 2.73 ± 0.043.

As for QSNINTNAPLRTLNIQP [YIL149C/MLP2], the protein stability index (doa10∆) amounted to 2.61 ± 0.11, the protein stability index (pdr5∆) turned out to be 2.36 ± 0.09, the protein stability index (san1∆) stood at 1.99 ± 0.086 and the protein stability index (ubr1∆) is 2.19 ± 0.076.

On to QSRLMSTSYHLNSTLES [MED6], for which the protein stability index is, setting by setting: (doa10∆) 2.79 ± 0.072; (pdr5∆) 2.79 ± 0.054; (san1∆) 1.97 ± 0.063; (ubr1∆) 2.37 ± 0.062.

Regarding QSSGKLKEYLDLVARTA [YDL116W/NUP84], the protein stability index reads like this: (doa10∆) 2.63 ± 0.23; (pdr5∆) 2.88 ± 0.16; (san1∆) 3.01 ± 0.099; (ubr1∆) 2.74 ± 0.15.

As to QSVEEKVLEMKNLKDTA [YIL149C/MLP2], the protein stability index is, setting by setting: (doa10∆) 2.81 ± 0.25; (pdr5∆) 2.58 ± 0.2; (ubr1∆) 2.78 ± 0.089.

In turn, QTENDLKDIEARIKEKA [RPT1] registered a protein stability index (doa10∆) of 2.8 ± 0.13, a protein stability index (pdr5∆) of 2.91 ± 0.11, a protein stability index (san1∆) of 3.03 ± 0.099 and a protein stability index (ubr1∆) of 3.37 ± 0.065.

As for QTFGVDILAKLFSLEKP [SWI1], the protein stability index amounted to 2.81 ± 0.063 (doa10∆), 2.52 ± 0.061 (pdr5∆), 2.58 ± 0.058 (san1∆) and 2.51 ± 0.046 (ubr1∆).

Consider QTGIFVYQNNITPSAMK [RPB5], for which the protein stability index by setting is: (doa10∆) 3.06 ± 0.091; (pdr5∆) 2.55 ± 0.16; (san1∆) 3.11 ± 0.075; (ubr1∆) 3.36 ± 0.12.

On to QTLLANSDHAKFTIEPG [SNF2], for which the protein stability index runs as follows: (doa10∆) 2.35 ± 0.059; (pdr5∆) 2.33 ± 0.065; (san1∆) 2.41 ± 0.1; (ubr1∆) 2.37 ± 0.063.

For QTNIWEENWDDVEVDDD [SEM1], the protein stability index stood at 3.27 ± 0.16 (doa10∆), 3.28 ± 0.09 (pdr5∆), 3.37 ± 0.082 (san1∆) and 3.38 ± 0.13 (ubr1∆).

Turning to QTQQDLPKVRYNVEKVK [NSL1], the protein stability index reads like this: (doa10∆) 2.7 ± 0.074; (pdr5∆) 2.57 ± 0.063; (san1∆) 2.75 ± 0.054; (ubr1∆) 2.33 ± 0.079.

Turning to QTTEGYDPKDALKNACN [RPB11], the protein stability index reads like this: (doa10∆) 3.28 ± 0.26; (pdr5∆) 3.28 ± 0.14; (san1∆) 3.26 ± 0.082; (ubr1∆) 3.35 ± 0.15.

For the sequence QVDKVTKEKVNGASVPI [RPL26A], the protein stability index is 3.1 ± 0.077 (doa10∆), 3.3 ± 0.11 (pdr5∆), 2.86 ± 0.097 (san1∆) and 3.08 ± 0.046 (ubr1∆).

As to QVLKCKESWDPNTTKTK [YGR119C/NUP57], the protein stability index by setting is: (doa10∆) 3.52 ± 0.21; (pdr5∆) 3.41 ± 0.076; (san1∆) 3.63 ± 0.089; (ubr1∆) 3.55 ± 0.15.
